In article PMC10952558, “Domain shuffling of a highly mutable ligand‐binding fold drives adhesin generation across the bacterial kingdom” (Proteins, 2023):
Like-named read-outs stand apart in the source and are kept apart here.

Legend:
[1] = target: cellular fibronectin (human); assay: MST; RED-NHS labeled cFn at 50 nM mixed with 16 concentrations (92 pM-3 uM) of the unlabeled protein; 637 mM NaCl, 2.7 mM KCl, 10 mM Na2HPO4, 1.8 mM KH2PO4, pH 7.4; 22-23°C; Monolith NT.115, MST power 40%, excitation 20%; triplicate; single-site dose-response model
[2] = target: the molecule itself; assay: crystal structure; dimeric SEC fraction of C-terminally His-tagged CshB_NR2; sitting drop, 20°C, 0.1 M SPG buffer pH 5, 25% w/v PEG 1500; molecular replacement with 5L2D; 1.4 Å
[3] = target: cellular fibronectin (human); assay: MST; RED-NHS labeled cFn at 50 nM mixed with 16 concentrations (92 pM-3 uM) of the unlabeled protein; 637 mM NaCl, 2.7 mM KCl, 10 mM Na2HPO4, 1.8 mM KH2PO4, pH 7.4; 22-23°C; Monolith NT.115, MST power 40%, excitation 20%; triplicate; single-site dose-response model; remark: listed apart in the source

“CshB_NR2 (NR2 domain of CshB), N-terminally hexa-histidine-tagged variant (from UniProt A8AXC5 211-528) (domain or fragment)” showed a Kd [1] of 530 nM.

B1: CshB_NR2 (NR2 domain of CshB), C-terminally hexa-histidine-tagged variant, dimeric form (domain or fragment)
chain: WLDFSDSASWKNLDQRGGLKVGTTFTKEISPGYVVTLTVKELKPFNSTEIYKKRVAGTATEGTYNPDAENGFLTSAPYYGKTPPPSVTGAAQNEWTTIRDQGFNTQKRKTQLVYPMNSTNWGVKFDIEATYLGKRVAPTVVMADGEDANPGEFAIFTTNGTGWEYMGEWKMKSPAKEAYTVITKKMLDDEDVKRRGLLILKDKSVDWYKYLSPDTVTGGLGSQVFGPNRSNERTVPVVMTRGASEVGFYVASSGQQAMMMGFLVVDVSDAPESYGEAFHTISTRDSVTNDPINQPYLGTTPADIDVESSNDWVLDDKK
notes: CshB, Streptococcus gordonii DL1, NR2 domain, residues 211-528 of the full-length CshB polypeptide; amplified from chromosomal DNA, in pOPINE; Used for crystallization; Only the dimeric SEC fraction crystallised
For B1, the “stoichiometry N” value [2] was 2.

B2: CshA_NR2 (NR2 domain of cell surface hydrophobicity protein A), wild type (domain or fragment)
chain: WVDFSDTASMKNLDPQGGFKVGTVFKKEISPGYVVTLTVTELKPFNSTEIYKKRVEGTPTANTYDPNAINSYLKGYKDYGKTPPSVTGRPQNKFSTIGGQGFDTQGRKTQIILPDDAVNWGIKFKVEATYRGNPVKPSVVMADGEDANPAEYGIFTTNGEGWEYVGEWMKGPRAKGPYTVMTEDMVKAFDKTRKDGLLILKDKSVDWSKYLSPDTVTGGLGSQVFGPIISASKAVPVVMTRGASEVGFYVATGGQQALMMGFLVVDSSDAPASYGEAYHTIGTRDSIANTPINQPYLGSTAADIDADSESDWTADDRE
With B2 the Kd [3] was 302 nM.
